Source: US20030068630A1 (MYRIAD GENETICS, published 2003)

Target: T1, Mineralocorticoid receptor (MCR) amino acids 603-985, Gal4 DNA-binding-domain bait fusion (Saccharomyces cerevisiae, UniProt P04386 1-147; P08235 603-984)
T1 construct: range 1-147;range 603-985; Bait made as a C-terminal fusion to Gal4 DBD in vector pGBTQ; also called MCR AA 603-985
Assay: yeast two-hybrid (Gal4, beta-galactosidase read-out) with 4 uM aldosterone; bait MCR AA 603-985
Protocol: DNA was prepared from each clone, transformed by electroporation into E. coli strain KC8 (Clontech KC8 electrocompetent cells, cat. # C2023-1), and the cells were selected on ampicillin-containing plates in the absence of either tryptophane (selection for the bait plasmid) or leucine (selection for the brain library plasmid). DNA for both plasmids was prepared and sequenced by di-deoxynucleotide chain termination method. The identity of the bait cDNA insert was confirmed and the cDNA insert from the brain library plasmid was identified using BLAST program against public nucleotides and protein databases. Plasmids from the brain library (preys) were then individually transformed into yeast cells together with a plasmid driving the synthesis of lamin fused to the Gal4 DNA binding domain. Clones that gave a positive signal after β-galactosidase assay were considered false-positives and discarded. Plasmids for the remaining clones were transformed into yeast cells together with plasmid for the original bait. Clones that gave a positive signal after ,galactosidase assay were considered true positives.
A yeast two-hybrid system as described in Example 1 was performed in the presence of aldosterone. […]

binding result: binds
B1: PN19395 amino acids 120-397, Gal4 activation-domain prey fusion (other, Saccharomyces cerevisiae, not shown: small tags and cut ends)
chain: ANFNQSGNIADSSLSFTFTNSSNGPNLITTQTNSQALSQPIASSNVHDNFMNNEITASKIDDGNNSKPLSPGWTDQTAYNAFGITTGMFNTTTMDDVYNYLFDDEDTPPNPKKELMPGAGLLPIPTPNPLTTLGVSLSSLGAIPAAALDPNIATLGEIPQPPLMGNVDPSKIDEIRRTVYVGNLNSQTTTADQLLEFFKQVGEVKFVRMAGDETQPTRFAFVEFADQNSVPRALAFNGVMFGDRPLKINHSNNAIVKPPEMTPQAAAKELEEVMKRVREAQSFISAAIEPESGKSNERKGGRSRSHTRSKSRSSSKSHSRRKRSQSKHRSRSHNRSRSRQKDRRRSKSPHKKRSKSRERRKSRSRSHSRDKRKDTREKIKEKERVKEKDREK
notes: range 768-881; Novel 624 amino acid protein; Clone from a human brain cDNA library in pACT2
